Measured values reported in the supplement of paper PMC12455559.

Experiment: purified protein yield per well (BCA); higher = higher soluble expression
Outline: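 Each candidate enzyme was grown in E. coli C41(DE3) in a 2 mL autoinduction culture (100 µg/mL kanamycin; 2 h at 37 °C, then 40 h at 18 °C) and purified robotically via Ni-charged magnetic beads with SUMO protease cleavage. Purified protein yield per well was assessed using the Pierce Rapid Gold BCA kit. Readings below 25 ug (0.1 mg/mL) are beneath the detection threshold.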
With “VENGPAPTFSSVQAEGPFAVSTQTVRGSGFGGGTVYSPNTAGKYAVVAVCPGFTATQSSIALISRRLATHGFVVVTISTNSVYDYPASRANQLLAALRTVTALTTGPVAGKMDISRQGVAGWSMGGGGAMLAAGMTPGLKAGVAFAPWSLTNNVGSSSVPMAYLAGTADTVAPASSHSTVFYNAMPATTNKLIGVIQGANHYFPGTASQPASYTQVAWMKRFLDGDTRYSQFLNGDSRFATFRSTGPF [ESM102]” the “purified protein yield per well” value was < 25 µg.
In the case of “VENGPAPTLASVQADGPYAVSTQSVSGTGFGGGTVYSPNTAGKYAVVAVCPGFTATQSSIAAISRRLATHGFVVVTINTKSTYDFPPSRANQILAALRTVTALTTGPVAGKMDISRQGVAGWSMGGGGAMLAAGMTPGLKGGVAFAPWAQSSNVSSSAVPMSYLAGSADGVAPPSMSTSFYNATPGTTRKMLGVIRGADHNFPKTASQPASYTQVAWMKRFLDSDTRYSQFLNGDSRFSTFRSTGPF [ESM088]”, the “purified protein yield per well” value is reported as < 25 µg.
For “VQNGPTPTLADLKKDGPYAVTSQTVAGNGFGGGTVYSPNTAGKYALVAVCPGFVSAQSSMTEMGRRLATHGFVVVTIATNTPFDFPSSRATQLLAALKTVAALNTGAVAGKVDTSRQVVSGWSMGGGGTLEAAGITPGLVAGVAFAPWHTSTAKMTSLTVPVAIIGGTSDTIAPVSGHSQKFYDAIPKTTKKMLGVITGADHFFPTKASEPTSYSNISWVKRFADGDTRYSPFLTGQDAAWASFVSTGPF [ESM118]”, the “purified protein yield per well” value was < 25 µg.
In the case of “APANPYERGPDPTEASVTAEKGPFTIERIDVPTGSGTGFNRGTIYAPTDTSQGTFGAIAVSPGFVSPQAWIDWYGPRLASQGFVVMTLETLNLMDVPDSRANQLLAALDYLTGKSTVKNRIDPARLAVMGHSMGGGATLRAAAERPALQAAIPLAPWHTDRDWQGVTVPTMIMGADNDFIAGVGAHAEPFYRNLTSAPEKAYLELRNAGHMSFNTPNTTIAKYGISWMKRFVDDDTRYDRFLCPAPRPGAAINEYRDTCPNG [TEP186]”, the “purified protein yield per well” value is reported as < 25 µg.
With “FGAVAISPGFTAAWSSLSWLGPRLASHGFVVIGIETNSRLDQPASRGDQLLAALDWAVNQSPAASRIDRNRLAVAGHSMGGGGTLEAAKDRPSLKAAIPIAPWNLDKTWPEIRTPTLILGGENDLIAPVASHAEPFYNSIPASAEKAYLELDNESHFFPQFSNTIMAKYMISWLKRFVDNDTRYDQFLCP [TEP090]” the “purified protein yield per well” value was < 25 µg.
With “DEIGQAPTSSNITGNGSFSVSTYNISSLVSGFGGGVAYYPTTSGRYPVVAVSPGFTARWSSISWIGPRLASWGFVVVGIETNGLYDQPASRGSQLLAALNWAVNSAPSAITSRADGSRRGVAGHSMGGGGTLEALAADTTGNVKAGVPIAPWNSDKTWSGINEAVQIVGGESDTIASVGSHSIPFYNSVSGPKSYVELNGASHFFPQSTNSTLSRALVSWFKRYLNQDARFTPFTCGYGGTAVSDFRTNAC [ESM151]” the “purified protein yield per well” value was < 25 µg.
For “YRPVVAFRVKVRKLERAIGESMASVARMQGRYLRASTLTAVAAATIVGCYLRGPDPTVELVESPVGPFEVETVLVPSTVDGFGGGEIYDPVDEDYSFGGIAVVPGVGIDRSRLEWYGPRLASHGFVVFLIETDSVWDVPDQRGEQLIAALDYMTTQSAVVDVVDPKRLAVMGYSFGGGGVIHATRLKPDLKAAIPLAMWFWDNDQSASTVPHLLISCEIDFENDAHTGAVYESRPASTARAMMEIAGADHQCIKQDGSTEQQ [TEP130]”, the “purified protein yield per well” value was < 25 µg.
For “MFSASTFAYNPAPPPPSPTPTPTPGPLPGQPNDGFQRGPNPSVSLLEAERGPFSVRNARVSSSVRGFGGGTIYYPTGTTGTMGAIVVIPGYVSPESSIAWWGPKMASHGFVVMTIATNRTTDQPSSRATQINAALDYLISQNSTSGSPVRNMIDTDRLGVMGWSMGGGGTLRVASQNRLKAAIPLAPYDTISFRNVDAPTLIFGCESDTVAPVRNHASPFYNQIPAGTDKAFVELNGGSHTCANGGNQYNDVLSRLGVSWMKRHLDNDTRYSQFLCGPNHTSDRDISEYRGNCPY [DP070]”, the “purified protein yield per well” value was < 25 µg.
In the case of “DEIGSAPTAATITGNGSFATASTSVSSPSGFRGGQVYYPSTAGTYPVIAVVPGYLSYWSSISWLGPRLASWGFVVVGIETNSIYDQPASRGSQLRAALTWAVNTSPTTVRSRVDANRQGVAGWSMGGGGSLEALKADTSGRIKAAVPMAPWNSDQSWPEVTESVAIVGGQSDSVAPVSSHSIPFYNSLAGPKSYVELAGASHFFPNSDNPSLSRMIVSWFKRWINNDTRFTTFTCGFTGSAISSFRTNAC [ESM178]”, the “purified protein yield per well” value is reported as 27.5 µg.
In the case of “ADNPYQRGPNPTLSSVRAGSGPYATTSTTVARSAVSGFGGGTVYYPTSTSDGTFGAVAMCPGYTATKESLAWFGPRVASHGFVVFIIDTVTTSDQPAQRGDELLAALDHLTRTSSVRSRIDASRLAVAGHSMGGGGTLEAAKDRPGLRAAVPLAPWNTTKNWSGNRVPTLIIGGQSDTIAAVSSHAVPFYTSLPTTPDKAYLE [DP074]”, the “purified protein yield per well” value is reported as < 25 µg.
In the case of “LTLDDLKKDGPYAVSSQTIPGSGFGKGTIYSPNAAGKYALVAVVPGFVSAESSMTEISKRLATHGFVVVTIGTKTLLDFPSSRASQLLAALKAASAVTTGPVAGKIDVTRQVVSGWSMGGGGTLEAAASTPGLKAAVAYAPWNLSSTKYKAITVPSAIIGGTADTVASVSAHSQPFYNAIPATTRKLLGVIQGADHFFPNKAVDPASYTNIAWVKRFADGNTAYAPFLAGQDAAWASFVSTGPF [ESM087]”, the “purified protein yield per well” value is reported as < 25 µg.
In the case of “APPVAGPYQRGPAPTEEVLVAARGPFAVTQTRMAAGQGTGAGTVHHPTDASQGTFGAVAVMPGFMGTEKSIRLYGPLLASHGFVVLTLSSVRRADFPDQRADQLLAALDRLVAGPAKGLIDAERLAVVGHSMGGGATLRAAARRPGLKAAVPLAPWHVRRDWRSVRVPTLIFGSENDRVAPVDKHAEPFYASLTRAPEKAYVELRDGGHLSFNTANPVIAKYTVSWLKRYVDDDVRYDPFLCPGPAFPSPTIREYRGTCPS [DP060]”, the “purified protein yield per well” value is reported as < 25 µg.
In the case of “VENGPAPTLAAIQKDGPYAVTAQAIKGSGFGSGTIYVPNAAGQYALVAVCPGFVSPESSITAISKRLATHGFVVVTIATNTLLDFPSSRASQILAALKAAAGTTTGAVAGKIDVSRQVASGWSMGGGGTLEAAASTPGLVAAVAYAPWNTSSTKYKTITVPSLILGGTADVIAPVAQHSQPFYNAIPATTPKMLAVIQGASHFFPNSAGEPQSYTNISWVKRFADGDTRYGTFLNTKDAAFSTVQSTGPF [ESM089]”, the “purified protein yield per well” value is reported as < 25 µg.
In the case of “FNPGSGGGSGGANTCETNCGFERGPDPTLSGLRSGTGPYSVSTVDVPYGSAGFGGGTIHYPTNTSGGKMGAIAVIPGFVSPESSIGWWGPALASQGFVVLTMGTQTPLDSPSARARQLTAGLDHLVEQSNSSSSAISGLVDPSRVAMVGWSMGGGGTLKNAAGDRLSAAIPLAPFDMDMSSYKNIETPTMILGCESDIIAAADLFAVPSYEHIPESTDKAYFEFAGQGHWCANGNNDNNELLSILGVSWMKRYLDKDTRYDQFLCGTNHSSNSAFSQVRDTCN [DP064]”, the “purified protein yield per well” value is reported as < 25 µg.
In the case of “QACDSLLLESITNPGPFIVNTIDESLGIRNGPGYNGGTIFYPDHIGNFSSIVLVPGFMNSEFTIQNWGAFFASHGIITMTIGTNALTDTHIQRRDALLDAIVSLKAENERLGSPLYGSIDTSSIAVGGFSKGGGGAMLVPAIDPNIKAIISLYPWLENPTSSDLNHSVPVIIISGELDLIAPPFIHADIHYNLLPNTTMKLKYEVALGSHDIISGPNAGNGEVGVRVISWLQNFLLDDSCYCPILTLIPNTSSSYTTNILCNNTSINISSFNTGSDKKLLKITDIFGRETKEILNKYLLFIYDDGTVEKNIVLE [TEP022]”, the “purified protein yield per well” value is reported as < 25 µg.
With “QIGPDPTSASLNATAGSFAVSTSNVTLARGFGGGTIYYPTTAGRYGVVAISPGFTATQSSIAWLGRRLATHGLVVITMNTNSTLDQPASRATQLMAALNYVVNSASSTVRARVDSTRLAVAGHSMGGGGALIAAEDNPTLKAALPLTPWNLSTSFTQVRVPTLIVGADGDTVASVAAHARPFYASLPASTFKAYAELNGATHFTPNSTNTPIGRYGVTWMKRFVDADTRYSPFLCGAAHTAYATALVFDRYNQNCPY [ESM068]” the “purified protein yield per well” value was < 25 µg.
